*1 amine or outer side, *2 acyl side, *3 side chain or, on linkers, in order; H or OH if unused. Where no end group is shown, it is not given here. Side-chain parts run from the residue outwards. [ ]: non-standard residue; d: D form. The star is where a group is joined. Decanoyl(10-(4-HOOC-PhO)) = O=C(O)c1ccc(OCCCCCCCCCC(=O)*)cc1; d(γGlu) = O=C(O)[C@@H](CCC(=O)[*:2])N[*:1]; C16 diacid = O=C(O)CCCCCCCCCCCCCCC(=O)*; γGlu = O=C(O)[C@H](CCC(=O)[*:2])N[*:1]; 13‑carboxytridecanoyl = C14 diacid; AEEA = NCCOCCOCC(=O)O; Aib = CC(C)(N)C(=O)O
B1: GLP-1 derivative of Example 93: [Aib8,Lys18,Arg34]-GLP-1-(7-37)-peptide (peptide)
peptide: HXEGTFTSDVSKYLEGQAAKEFIAWLVRGRG
modifications: Aib8; Lys18 and Lys26 each Nε-acylated with 10-(4-carboxyphenoxy)decanoyl-gGlu-OEG-OEG
B2: GLP-1 derivative of Example 103: [Aib8,Lys18,Arg34]-GLP-1-(7-37)-peptide (peptide)
peptide: B1 peptide
modifications: Aib8; Lys18 and Lys26 each Nε-acylated with 13-carboxytridecanoyl-gGlu-gGlu-OEG-OEG

Target: T1, human GLP-1 receptor (human, UniProt P43220 24-463)
T1 construct: whole, on cells; Used as purified membranes of the transfected hamster cells, not whole cells; also called hGLP-1
Experiment: SPA, 2.0% vs 0.005% HSA
Procedure: (§1) A shift in the binding affinity, $IC50$, is an indication that the derivative in question binds to albumin, and thereby a prediction of a potential protracted pharmacokinetic profile of the derivative in question in animal models.
(§2) 25 ul (microliter) of test compounds are added to Optiplate. HSA ("high albumin" experiment containing 2% HSA), or buffer ("low albumin" experiment containing 0.005% HSA), was added (50 ul). 5-10 µg protein/sample was added (50 ul) corresponding to 0.1-0.2 mg protein/ml (to be preferably optimised for each membrane preparation). SPA-particles (Wheatgerm agglutinin SPA beads, Perkin Elmer, #RPNQ0001) were added in an amount of 0.5 mg/well (50 ul). […] The plates were sealed with PlateSealer and incubated for 120 minutes at 30° C. while shaking. The plates were centrifuged (1500 rpm, 10 min) and counted in Topcounter.

Binder	ratio IC50 high HSA/IC50 low HSA
H[Aib]EGTFTSDVSK([AEEA-AEEA-γGlu-13‑carboxytridecanoyl])YLEEQAAK([AEEA-AEEA-γGlu-13‑carboxytridecanoyl])EFIAWLVRGRG [GLP-1 derivative of Example 100: [Aib8,Lys18,Glu22,Arg34]-GLP-1-(7-37)-peptide]	> 1
H[Aib]EGTFTSDVSK([AEEA-AEEA-γGlu-13‑carboxytridecanoyl])YLEGQAAK([AEEA-AEEA-γGlu-13‑carboxytridecanoyl])EFIAWLVQGRG [GLP-1 derivative of Example 141: [Aib8,Lys18,Gln34]-GLP-1-(7-37)-peptide]	> 1
H[Aib]EGTFTSDVSKYLEEQAVREFIAKLVRGRG (not fully specified (residues 12, 25)) [GLP-1 derivative of Example 137: [Aib8,Lys18,Glu22,Val25,Arg26,Lys31,Arg34]-GLP-1-(7-37)-peptide]	> 1
B1	> 1
H[Aib]EGTFTSDVSK([AEEA-AEEA-γGlu-γGlu-C16 diacid])YLEEQAVREFIAK([AEEA-AEEA-γGlu-γGlu-C16 diacid])LVRGRG [GLP-1 derivative of Example 134: [Aib8,Lys18,Glu22,Val25,Arg26,Lys31,Arg34]-GLP-1-(7-37)-peptide]	> 1
H[Aib]EGTFTSDVSK([AEEA-AEEA-AEEA-AEEA-AEEA-AEEA-γGlu-13‑carboxytridecanoyl])YLEEQAVREFIAK([AEEA-AEEA-AEEA-AEEA-AEEA-AEEA-γGlu-13‑carboxytridecanoyl])LVRGRG [GLP-1 derivative of Example 144: [Aib8,Lys18,Glu22,Val25,Arg26,Lys31,Arg34]-GLP-1-(7-37)-peptide]	> 1
B2	> 1
H[Aib]EGTFTSDVSK([AEEA-AEEA-γGlu-γGlu-γGlu-13‑carboxytridecanoyl])YLEEQAVREFIAK([AEEA-AEEA-γGlu-γGlu-γGlu-13‑carboxytridecanoyl])LVRGRG [GLP-1 derivative of Example 102: [Aib8,Lys18,Glu22,Val25,Arg26,Lys31,Arg34]-GLP-1-(7-37)-peptide]	> 1
H[Aib]EGTFTSDVSK([AEEA-γGlu-AEEA-13‑carboxytridecanoyl])YLEEQAVREFIAK([AEEA-γGlu-AEEA-13‑carboxytridecanoyl])LVRGRG [GLP-1 derivative of Example 145: [Aib8,Lys18,Glu22,Val25,Arg26,Lys31,Arg34]-GLP-1-(7-37)-peptide]	> 1
H[Aib]EGTFTSDVSK([AEEA-γGlu-AEEA-C16 diacid])YLEEQAVREFIAK([AEEA-γGlu-AEEA-C16 diacid])LVRGRG [GLP-1 derivative of Example 146: [Aib8,Lys18,Glu22,Val25,Arg26,Lys31,Arg34]-GLP-1-(7-37)-peptide]	> 1
H[Aib]EGTFTSDVSK([AEEA-AEEA-AEEA-AEEA-γGlu-13‑carboxytridecanoyl])YLEEQAVREFIAK([AEEA-AEEA-AEEA-AEEA-γGlu-13‑carboxytridecanoyl])LVRGRG [GLP-1 derivative of Example 130: [Aib8,Lys18,Glu22,Val25,Arg26,Lys31,Arg34]-GLP-1-(7-37)-peptide]	> 1
H[Aib]EGTFTSDVSK([AEEA-AEEA-AEEA-AEEA-AEEA-AEEA-γGlu-13‑carboxytridecanoyl])YLEEQAVREFIAK([AEEA-AEEA-AEEA-AEEA-AEEA-AEEA-γGlu-13‑carboxytridecanoyl])LVRGRG [GLP-1 derivative of Example 131: [Aib8,Lys18,Glu22,Val25,Arg26,Lys31,Arg34]-GLP-1-(7-37)-peptide]	> 1
H[Aib]EGTFTSDVSK([AEEA-AEEA-γGlu-Decanoyl(10-(4-HOOC-PhO))])YLEGQAAK([AEEA-AEEA-γGlu-Decanoyl(10-(4-HOOC-PhO))])EFIAWLVHGRG [GLP-1 derivative of Example 142: [Aib8,Lys18,His34]-GLP-1-(7-37)-peptide]	> 1
H[Aib]EGTFTSDVSK([AEEA-AEEA-d(γGlu)-γGlu-13‑carboxytridecanoyl])YLEEQAAK([AEEA-AEEA-d(γGlu)-γGlu-13‑carboxytridecanoyl])EFIAWLVQGRG [GLP-1 derivative of Example 105: [Aib8,Lys18,Glu22,Gln34]-GLP-1-(7-37)-peptide]	> 1

Target: T1, human GLP-1 receptor
Experiment: SPA, displacement of 125I-GLP-1(7-36)NH2, 0.005% HSA
Procedure: as §1, §2

Binder	IC50 [nM]
H[Aib]EGTFTSDVSK([AEEA-AEEA-γGlu-13‑carboxytridecanoyl])YLEEQAAK([AEEA-AEEA-γGlu-13‑carboxytridecanoyl])EFIAWLVRGRG [GLP-1 derivative of Example 100: [Aib8,Lys18,Glu22,Arg34]-GLP-1-(7-37)-peptide]	< 1000
H[Aib]EGTFTSDVSK([AEEA-AEEA-γGlu-13‑carboxytridecanoyl])YLEGQAAK([AEEA-AEEA-γGlu-13‑carboxytridecanoyl])EFIAWLVQGRG [GLP-1 derivative of Example 141: [Aib8,Lys18,Gln34]-GLP-1-(7-37)-peptide]	< 1000
H[Aib]EGTFTSDVSKYLEEQAVREFIAKLVRGRG (not fully specified (residues 12, 25)) [GLP-1 derivative of Example 137: [Aib8,Lys18,Glu22,Val25,Arg26,Lys31,Arg34]-GLP-1-(7-37)-peptide]	< 1000
B1	< 1000
H[Aib]EGTFTSDVSK([AEEA-AEEA-γGlu-γGlu-C16 diacid])YLEEQAVREFIAK([AEEA-AEEA-γGlu-γGlu-C16 diacid])LVRGRG [GLP-1 derivative of Example 134: [Aib8,Lys18,Glu22,Val25,Arg26,Lys31,Arg34]-GLP-1-(7-37)-peptide]	< 1000
H[Aib]EGTFTSDVSK([AEEA-AEEA-AEEA-AEEA-AEEA-AEEA-γGlu-13‑carboxytridecanoyl])YLEEQAVREFIAK([AEEA-AEEA-AEEA-AEEA-AEEA-AEEA-γGlu-13‑carboxytridecanoyl])LVRGRG [GLP-1 derivative of Example 144: [Aib8,Lys18,Glu22,Val25,Arg26,Lys31,Arg34]-GLP-1-(7-37)-peptide]	< 1000
B2	< 1000
H[Aib]EGTFTSDVSK([AEEA-AEEA-γGlu-γGlu-γGlu-13‑carboxytridecanoyl])YLEEQAVREFIAK([AEEA-AEEA-γGlu-γGlu-γGlu-13‑carboxytridecanoyl])LVRGRG [GLP-1 derivative of Example 102: [Aib8,Lys18,Glu22,Val25,Arg26,Lys31,Arg34]-GLP-1-(7-37)-peptide]	< 1000
H[Aib]EGTFTSDVSK([AEEA-γGlu-AEEA-13‑carboxytridecanoyl])YLEEQAVREFIAK([AEEA-γGlu-AEEA-13‑carboxytridecanoyl])LVRGRG [GLP-1 derivative of Example 145: [Aib8,Lys18,Glu22,Val25,Arg26,Lys31,Arg34]-GLP-1-(7-37)-peptide]	< 1000
H[Aib]EGTFTSDVSK([AEEA-γGlu-AEEA-C16 diacid])YLEEQAVREFIAK([AEEA-γGlu-AEEA-C16 diacid])LVRGRG [GLP-1 derivative of Example 146: [Aib8,Lys18,Glu22,Val25,Arg26,Lys31,Arg34]-GLP-1-(7-37)-peptide]	< 1000
H[Aib]EGTFTSDVSK([AEEA-AEEA-AEEA-AEEA-γGlu-13‑carboxytridecanoyl])YLEEQAVREFIAK([AEEA-AEEA-AEEA-AEEA-γGlu-13‑carboxytridecanoyl])LVRGRG [GLP-1 derivative of Example 130: [Aib8,Lys18,Glu22,Val25,Arg26,Lys31,Arg34]-GLP-1-(7-37)-peptide]	< 1000
H[Aib]EGTFTSDVSK([AEEA-AEEA-AEEA-AEEA-AEEA-AEEA-γGlu-13‑carboxytridecanoyl])YLEEQAVREFIAK([AEEA-AEEA-AEEA-AEEA-AEEA-AEEA-γGlu-13‑carboxytridecanoyl])LVRGRG [GLP-1 derivative of Example 131: [Aib8,Lys18,Glu22,Val25,Arg26,Lys31,Arg34]-GLP-1-(7-37)-peptide]	< 1000
H[Aib]EGTFTSDVSK([AEEA-AEEA-γGlu-Decanoyl(10-(4-HOOC-PhO))])YLEGQAAK([AEEA-AEEA-γGlu-Decanoyl(10-(4-HOOC-PhO))])EFIAWLVHGRG [GLP-1 derivative of Example 142: [Aib8,Lys18,His34]-GLP-1-(7-37)-peptide]	< 1000
H[Aib]EGTFTSDVSK([AEEA-AEEA-d(γGlu)-γGlu-13‑carboxytridecanoyl])YLEEQAAK([AEEA-AEEA-d(γGlu)-γGlu-13‑carboxytridecanoyl])EFIAWLVQGRG [GLP-1 derivative of Example 105: [Aib8,Lys18,Glu22,Gln34]-GLP-1-(7-37)-peptide]	< 1000
